Data reported in the array DNA melting data of Ke et al..

Test: melting temperature; melt of duplexes
Details: sodium 0.0675 M; strand 1 µM

Substance | Tm
CGACGTGCCAAATGTGCTG+CAGCACATGGTGCACGTCG ((((((((...((((((((+))))))))...)))))))) | 48.9 °C
CGACGTGCCCCATGTGCTG+CAGCACATTACGCACGTCG ((((((((...((((((((+))))))))...)))))))) | 54.6 °C
CGACGTGCCCCATGTGCTG+CAGCACATCATGCACGTCG ((((((((...((((((((+))))))))...)))))))) | 46.5 °C
CGACGTGCGCCATGTGCTG+CAGCACATTCCGCACGTCG (((((((((..((((((((+))))))))..))))))))) | 50.9 °C
CGACGTGCCCCATGTGCTG+CAGCACATACAGCACGTCG ((((((((...((((((((+))))))))...)))))))) | 47.1 °C
CGACGTGCGTGATGTGCTG+CAGCACATTAAGCACGTCG ((((((((.(.((((((((+)))))))).).)))))))) | 54.5 °C
CGACGTGCCTAATGTGCTG+CAGCACATTTCGCACGTCG ((((((((..(((((((((+)))))))))..)))))))) | 50.5 °C
CGACGTGCATCATGTGCTG+CAGCACATGGAGCACGTCG ((((((((..(((((((((+)))))))))..)))))))) | 55.5 °C
CGACGTGCACCATGTGCTG+CAGCACATGGGGCACGTCG ((((((((.((((((((((+)))))))))).)))))))) | 62.8 °C
CGACGTGCTATATGTGCTG+CAGCACATCGCGCACGTCG ((((((((...((((((((+))))))))...)))))))) | 46.6 °C
CGACGTGCTTCATGTGCTG+CAGCACATGGCGCACGTCG ((((((((..(((((((((+)))))))))..)))))))) | 53 °C
CGACGTGCCTGATGTGCTG+CAGCACATGAGGCACGTCG ((((((((((.((((((((+)))))))).)))))))))) | 58.5 °C
CGACGTGCCGTATGTGCTG+CAGCACATGCGGCACGTCG ((((((((((.((((((((+)))))))).)))))))))) | 62.4 °C
CGACGTGCTGCATGTGCTG+CAGCACATGTAGCACGTCG (((((((((.(((((((((+))))))))).))))))))) | 60.4 °C
CGACGTGCCTAATGTGCTG+CAGCACATAACGCACGTCG ((((((((.(.((((((((+)))))))).).)))))))) | 48.2 °C
CGACGTGCTATATGTGCTG+CAGCACATCATGCACGTCG ((((((((...((((((((+))))))))...)))))))) | 50.2 °C
CGACGTGCCCAATGTGCTG+CAGCACATCTCGCACGTCG ((((((((...((((((((+))))))))...)))))))) | 47.6 °C
CGACGTGCTAGATGTGCTG+CAGCACATATAGCACGTCG ((((((((((.((((((((+)))))))).)))))))))) | 57.6 °C

Substance | Tm
CGACGTGCGGGATGTGCTG+CAGCACATCCCGCACGTCG (((((((((((((((((((+))))))))))))))))))) | 67.7 °C
CGACGTGCTAGATGTGCTG+CAGCACATGTAGCACGTCG ((((((((((.((((((((+)))))))).)))))))))) | 56.8 °C
CGACGTGCTTTATGTGCTG+CAGCACATTCAGCACGTCG (((((((((..((((((((+))))))))..))))))))) | 50.5 °C
CGACGTGCCGGATGTGCTG+CAGCACATTCCGCACGTCG ((((((((.(.((((((((+)))))))).).)))))))) | 54 °C
CGACGTGCTTTATGTGCTG+CAGCACATCTCGCACGTCG ((((((((...((((((((+))))))))...)))))))) | 46.5 °C
CGACGTGCGGAATGTGCTG+CAGCACATTCGGCACGTCG ((((((((.((((((((((+)))))))))).)))))))) | 59.9 °C
CGACGTGCTAAATGTGCTG+CAGCACATCCCGCACGTCG ((((((((...((((((((+))))))))...)))))))) | 48.9 °C
CGACGTGCAAAATGTGCTG+CAGCACATGTCGCACGTCG ((((((((.(.((((((((+)))))))).).)))))))) | 53.3 °C
CGACGTGCGACATGTGCTG+CAGCACATGAGGCACGTCG ((((((((..(((((((((+)))))))))..)))))))) | 55.3 °C
CGACGTGCACTATGTGCTG+CAGCACATTGGGCACGTCG ((((((((.(.((((((((+)))))))).).)))))))) | 53.3 °C
CGACGTGCTGTATGTGCTG+CAGCACATGTGGCACGTCG ((((((((...((((((((+))))))))...)))))))) | 51 °C
CGACGTGCCGCATGTGCTG+CAGCACATAGCGCACGTCG ((((((((...((((((((+))))))))...)))))))) | 53.9 °C
CGACGTGCAATATGTGCTG+CAGCACATTATGCACGTCG (((((((((..((((((((+))))))))..))))))))) | 52.1 °C
CGACGTGCATAATGTGCTG+CAGCACATCTGGCACGTCG ((((((((...((((((((+))))))))...)))))))) | 49.3 °C
CGACGTGCGCGATGTGCTG+CAGCACATGCCGCACGTCG (((((((((..((((((((+))))))))..))))))))) | 55.9 °C
CGACGTGCCGTATGTGCTG+CAGCACATATAGCACGTCG ((((((((..(((((((((+)))))))))..)))))))) | 52.1 °C
CGACGTGCGGAATGTGCTG+CAGCACATCCCGCACGTCG ((((((((((.((((((((+)))))))).)))))))))) | 60.3 °C
CGACGTGCGGCATGTGCTG+CAGCACATGGCGCACGTCG (((((((((.(((((((((+))))))))).))))))))) | 65.9 °C
